# Patent US20100196361A1, “Method of inhibition of vascular development using an antibody” (DYAX CORP., priority 2003, published 2010)
# B1: E3: human anti-Tie1 antibody from phage Fab library, reformatted as IgG; HC variable SEQ ID NO:114, LC variable SEQ ID NO:116 (antibody, V domains shown)
# VH: EVQLLESGGGLVQPGGSLRLSCAASGFTFSMYGMVWVRQAPGKGLEWVSVISPSGGNTGYADSVKGRFTISRDNSKNTLYLQVNSLRAEDTAVYYCARAPRGYSYGYYYWGQGTLVTVSSASTKGPSVFPLAPSSKSTSGG
# VL: DIQMTQSPLSLSASVGDRVTITCRASQGIGHYLAWYQQKPGKVPKLLIYTASTLQSGVPSRFSGSGSGTDFTLTINSLQPEDVATYYCQQFNSYPHTFGQGTRLDIK
# modifications: IgG constant regions; Synthetically generated peptide
# B2: parental E3 Fab: soluble Fab fragment of the parental E3 anti-Tie1 antibody (antibody, V domains shown)
# VH: EVQLLESGGGLVQPGGSLRLSCAASGFTFSMYGMVWVRQAPGKGLEWVSVISPSGGNTGYADSVKGRFTISRDNSKNTLYLQVNSLRAEDTAVYYCARAPRGYSYGYYYWGQGTLVTVSSASTKGPSVFPLAPSSKSTSGG
# VL: DIQMTQSPLSLSASVGDRVTITCRASQGIGHYLAWYQQKPGKVPKLLIYTASTLQSGVPSRFSGSGSGTDFTLTINSLQPEDVATYYCQQFNSYPHTFGQGTRLDIK
# Target: T1, Tie1-EpoR chimeric receptor (UniProt P14753+P35590)
# T1 construct: PCR amplified extracellular part of human Tie1 (bp 37-2316 of X60975); expressed in transfected cells
# T1 sequence (P35590+P14753 with tags, fused parts or gaps): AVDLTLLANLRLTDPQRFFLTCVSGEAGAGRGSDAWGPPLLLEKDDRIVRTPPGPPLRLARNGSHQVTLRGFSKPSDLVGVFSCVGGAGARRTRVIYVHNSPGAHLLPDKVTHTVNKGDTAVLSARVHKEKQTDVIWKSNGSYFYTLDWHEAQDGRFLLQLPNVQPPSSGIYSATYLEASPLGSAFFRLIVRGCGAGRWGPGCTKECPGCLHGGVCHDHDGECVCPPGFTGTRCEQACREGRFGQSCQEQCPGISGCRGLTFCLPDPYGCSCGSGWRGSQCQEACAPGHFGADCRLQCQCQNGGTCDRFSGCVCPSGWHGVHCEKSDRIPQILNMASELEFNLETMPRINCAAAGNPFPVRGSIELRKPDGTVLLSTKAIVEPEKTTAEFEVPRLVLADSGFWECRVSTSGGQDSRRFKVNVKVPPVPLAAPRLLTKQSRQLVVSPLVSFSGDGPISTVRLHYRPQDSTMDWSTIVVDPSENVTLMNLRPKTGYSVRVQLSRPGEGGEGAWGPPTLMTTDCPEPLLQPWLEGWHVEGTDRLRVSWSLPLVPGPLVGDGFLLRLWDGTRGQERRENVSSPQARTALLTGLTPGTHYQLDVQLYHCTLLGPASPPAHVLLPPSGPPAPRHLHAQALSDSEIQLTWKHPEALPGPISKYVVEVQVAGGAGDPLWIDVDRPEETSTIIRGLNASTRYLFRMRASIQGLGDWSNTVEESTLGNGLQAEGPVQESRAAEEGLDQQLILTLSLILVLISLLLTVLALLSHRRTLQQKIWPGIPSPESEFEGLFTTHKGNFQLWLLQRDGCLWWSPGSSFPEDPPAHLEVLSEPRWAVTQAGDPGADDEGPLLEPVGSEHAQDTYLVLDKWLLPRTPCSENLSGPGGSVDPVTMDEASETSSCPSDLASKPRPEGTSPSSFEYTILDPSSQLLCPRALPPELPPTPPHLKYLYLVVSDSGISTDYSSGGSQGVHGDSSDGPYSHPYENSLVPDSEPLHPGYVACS
# Assay: BaF3 bioassay (Tie1/EpoR chimeric BaF3 cell assay)
# Assay type: cell-based, human
# Conditions: for survival (viability) of Tie1-EpoR BaF3 cells: no IL-3, MTT
# Text: BaF3 bioassay. To generate Tie1-EpoR expressing BaF3 cells for the bioassay, BaF3 pre-B cells were stably transfected with a nucleic acid that expresses chimeric receptor containing the extracellular domain of human Tie1 fused with the transmembrane and cytoplasmic domains of the mouse erythropoietin receptor. The nucleic acid used was a Tie1-EpoR chimeric cDNA in a pEF-BOS expression vector. The nucleic acid encoding the chimeric receptor was constructed by cloning the PCR amplified extracellular part of human Tie1 (bp 37-2316 of X60975) as EcoRI-BglII fragment into mEpoR-pcDNA vector. The cDNA encoding for the chimeric receptor consisting of the extracellular part of Tie1 fused with the transmembrane and intracellular domains of EpoR was subcloned into the pEF-BOS expression vector. Vector was linearized and co-transfected into BaF3 cells with pcDNA3.1(+) Zeo vector (Invitrogen). Stable cell pools were generated by selection with 250 μg/ml Zeocin. The expression of Tie1/EpoR fusion protein in several clones was analyzed by Western blotting with an antibody against EpoR.
# To perform the assays, BaF3 cells expressing the Tie1-EpoR chimera were split in 96-well microtiter plates at 50 000 cells/well in the presence of the indicated concentrations of anti-Tie1 antibodies. The E3 antibody used in this study was the germ-lined E3 antibody (DX-2220). As controls, Zeocin resistant pools not expressing the Tie1-EpoR were used. After 48 h, the viability of the cells was determined by adding MTT (3-(4,5-dimethylthiazol-2-yl)-2,5-diphenyl tetrazolium bromide (Sigma), 0.5 mg/ml), followed by further 2 h of culture, addition of an equal volume of cell lysis solution (10% SDS, 10 mM HCl) and incubation overnight at 37° C. Absorbance was measured at 540 nm.
# Stimulation and inhibition of Tie1 in Tie1-EpoR transfected BaF3 cells and human primary endothelial cells. Although no ligand for Tie1 has been identified, we used the following efficient screening method for Tie1-binding proteins. Interleukin-3 dependent pre-B-lymphocyte (BaF3) cells were transfected with a construct that expresses a Tie1-EpoR fusion protein. Since BaF3 cells are IL-3 dependent, they die unless IL-3 is provided. However, Tie-EpoR receptor expressing BaF3 cells can survive and proliferate if the medium contains a Tie1-binding protein, either a natural ligand or an artificial mimetic. Cell survival can be quantitated, e.g., by colorimetric MTT-assay, which measures mitochondrial activity.
# To determine if any of the other monoclonal antibodies tested inhibit the survival effect of E3 IgG in Tie1-EpoR BaF3 assay, antibodies were studied in combination with E3 IgG. A concentration of 100 ng/ml of E3 IgG together with 100 (1:1) or 500 (1:5) ng/ml of the other antibodies were used and the viability of Tie1-EpoR cells was measured.
Molecule,viability of EpoR BaF3 cells used as a control (cells not expressing Tie1-EpoR),survival (viability) of Tie1-EpoR BaF3 cells,survival (viability) of Tie1-EpoR BaF3 cells (listed as E3 IgG),concentration giving almost maximal viability in Tie1-EpoR cell survival assays (viability dose dependent) [ng/mL]
B1,not affected,functions as a Tie1 activating antibody in the BaF3 cell bioassay,able to promote survival of Tie1-EpoR cells,50
B2,,no effect on the viability of Tie1-EpoR cells,,
